experiment: soluble fraction after stress (log2 fold change); higher = more stays soluble; pooled small domains, quantitative proteomics; conditions: stress: 75 degC
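Note: 20 min heating vs room temperature control held 20 min.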

| Sequence | soluble fraction (log2) |
| --- | --- |
| HMSWEDSLLKQAREIIDMYPQKRSAVGPLLHLAQSKDGYISDDSISVISKLVGITEVQLKSVSTFYSMYK | -1.74 |
| HMSWEELLEHLEKAAERGEEVRIAGVTLHDEEDFKRALRWLKEWL | -2.7 |
| HMSYIGEEKAKSIAVSNVKGAGTNNVVKVEFDYDDGRAVYEVKVVYNAMEYEFEIDASNGKILSRDAESIY | -1.45 |
| HMSYKFDSLAIILNKLDGKETVNVSSLSDELEVSARTVHRYIGTLQVAGFPIEYDKTKNSYIFSEGYTL | -0.794 |
| HMSYQFKIKNNAAVEVTVSEKNNLLGSTYGDKATVAAGMEKNVTFYTDKPDVVVDTNGNFTITVHDKEIII | 0.0601 |
| HMSYSYIYNYALKVKMDISSTGGKKPYAYYYYDHSYKLAEEILSLSEETESIELQNKYDELKDFYENP | -1.79 |
| HMSYTWHDMYLLAQEYQKEHGNLIIPRNYKGKNGLNLGYWLYKEKLKYRQGKLAPEKIIALEHIGIVWT | -1.25 |
| HMSYYKEMIRLADSIADKAHEGQTDRNGWPYISHPRRVALGARKLVSEMASSTSPDTSLEELKAEVQIVAL | -0.321 |
| HMTAAPEVRVEGLFKGAAVLKIDGQQVMLKKGRSHSSGVTLVDANAHRAIVEIDGQRHELALHMA | -0.0588 |
| HMTADIRFLNSRKFYIYKVEKGETLFSISQKFNIPQEEIIQFNKDINQQGLKAKTKLWVPAYSWL | -3.46 |
| HMTAGTGIAYSEFRSKVQEGQVKDVAIAPDRITGTLSSGQKFSTVPVNDPGLPKMLDDFNVKYSGQA | 0.139 |
| HMTAIWKTITATLTHDIATGKYAPGDRLPTEAQLAARFGVNRHTVRRAISDMNESGLTYSRRGAGVFVAQ | -2.56 |
| HMTALAVGDRVKMDKSATIYGTMRKFAAWVYATKLYVRGIDGNRVVVSTLKSGAITGAVDKKHLTK | -1.61 |
| HMTAMDTQQKKLIIMYHDIHRLRNVEHFTIQRIADHLLLNFRTVKKFLEMTQEEFDKFSENRW | -2.89 |
| HMTANPSTEEIMARVEAIPLPIKRLPPGQIVQAQTVAATVLRSNPGLDLAKAWKLAYATVTGQE | -0.15 |
| HMTANTQVENIRLELQRYMDEHGISQVTVARGIGKTHPVISQFLNNKYPGDVEEVARAIESWLTKQHEKAA | -0.128 |
| HMTAPELGIRQDGNTLVIFWPSSVTGYVLKSADAVDTPPASWTSVTHTTVGDEHRAEITPTGNSRFFRLV | -0.156 |
| HMTAPQAQDYARVPDVLGLDMRESAQALRLDGFEMNAQGDGLAARQSPIGGSYAPEGTQVLVTFEM | 0.053 |
| HMTAQLAAQERTHALDMFMGGYKFSSKPAENGVRAEFEKKNFTLEDGKFLGGDEFMKSLMENDDYKGAFV | 0.406 |
| HMTASKSTVSTPEKVVYHIVFPKETKYSIAKKYGITIEELEKRNPEIIPSLSVGQKLVIKGTAPK | -0.236 |
| HMTATDRQLQLIAYTAARLMAEQGIADFNAAKRKAIQTLGLPNNAKLPGNADVEAQLRAYQRIF | -0.605 |
| HMTATKDLPFSTFITEVEKGNITSVDIKGNQIEGTFSNGAKFKTYSPNYPNLVERLADKGVAISAGPS | 0.0934 |
| HMTAVPADVETVTGFTALDRAGLDTLLARLGLAMDLEDLSFLQAYFRDTERRDPTLTEIRVVDTYWSDH | -1.1 |
| HMTDAEQHEALLFKQVVDGLPQTLRDTFVLSRHAGMTYAEISAHTGTPIKTVESRMAKALELIAQRMR | -1.27 |
| HMTDDALIGKTAQVTVAIKPGSVGQITARVGDERVERLARASADAEIAAGSLVTIKSIAGDSVIVAPE | 0.317 |
| HMTDDPGLSRAENRELQTLLLDRGHDIGQPDGLIGAKTRAAIRAEQSRLNMPVNGRGGQKLLRALRL | 0.262 |

| Sequence | soluble fraction (log2) |
| --- | --- |
| HMTDFLKTRIDTLGLSTRTLNALSEANVRTIGGIARKKQEDLLEIDGIGEKGIQEIKKMLGEYGITL | -0.303 |
| HMTDFSDLSFKYNSEEKDVLNSINLKINGGEMTSLVGHSGAGKTTILNLIPRFYEKSKGDISIDGQSIY | 0.0241 |
| HMTDGLTVPMQGVVIRYKAKKGDKVAVGDAVAVLEAMKMEQNIFANKSGTIKEIYIKEGTTVTPGDVLMSI | -0.315 |
| HMTDLNDTQIKILELLSADASLSAAKMAGQLGIAGRNVEANIKKLKEKGILIRHGSPKSGYWEIVN | -0.349 |
| HMTDNSTTTIRNLKIEWLLEEIRNAVRTGVSVDAAVERISNNPFVKPPEDLLNEARIIFLQNAGQI | -0.79 |
| HMTDPVLYEERDDIAIITINRPEKKNTLTDAVIQGIADGIDAATKSADVVAVVLRGAGDTLTAGYDLTA | 0.213 |
| HMTDSDTQDIDVGELRVGHFVFLDLSWIRHPFPLSSFKIQSAEQIKTIRSLGLRRIRYSPGRSGP | -1.31 |
| HMTDSSEILEAALKEAEDAAHEVLNGTFSVQLEPQKAYIRRLQHMLIDRMNLSSTSKGKEPYRSLLVYR | -1.41 |
| HMTDTDVLSSRLSALSSGRTSAVRLRDGVLSLVLDVGGLSIEARKAMTTAIESTARATPGVEAVRIAET | -0.479 |
| HMTDTSFPRLGAPEEELLSFLAKWEIDAEDAHYTKFSLYYQSTGKMMRDWKATWRAWKERQSELNAQR | -2.33 |
| HMTDVGLEAAKAAALKHAGLSADQVTGLTAKLDWDDGQRVYEVDFWQGSTEYEYEINADGTVRQYESEAH | ≥ 1.04 |
| HMTDVRFIDIPVTEHHPWNGMKVRDLQLPPGTLLVFLSHPGEKNTVPHGETVLRSGDVLVLGATAYTGQ | -0.753 |
| HMTDVRFISIPIQKEHPWNRKLVSELNLPPGTLLVFLRRTGENIVPNGKTMIQEGDVLVLGASAYR | -1.31 |
| HMTEALEFTVEDLRMAGLVNSSFSRRRRELFSEKLGIGYGNGKSLLKKLNGYGITREEFNGAIQSLSD | -0.817 |
| HMTEIILTARSGRHAVRHRLEGLGYTLTPEELERVHQRFLAVADAKKEVFDEDLHALMADERGT | -0.219 |
| HMTEKMILKWKEALERMNDDFTTKDWLNVVIHEMGKSERTAYGWLSDMKRSGIIKDLGYGSWLKVLE | -1.37 |
| HMTEKPTREAHILDQLARDGGVLVAALSRELGVSEVTIRSDLRDLEAAGLLQRTHGGAQASSFQTVL | -0.0942 |
| HMTELNNTQRAAVLLLALDEDSAAEVFKHLSAREVQEVSQEMAKLGNISHDQMRQVLDDFYDESEQF | -0.127 |
| HMTELPLTPRSKRILEMSALEARRLNHSYIGTEHLLMAIIRDGDGVAAKILESLGVNLPNFYTDTVRSIE | 0.0533 |
| HMTELSLSEQAYQQLRRMIVRLDFAPGDVLREEALQEALGMSRTPIREALQRLAREHFVTVIPRRGMFVS | -3.15 |
| HMTELVIPDYFSKALAKNKKAKQVFEAFAYSHRKEYLQWITEAKTEETRNKRMATAIEWIAEGKGRNWKYA | -3.45 |
| HMTEPIESVTTIAGRRIPYRLVRSLRARRMRMTIKESQVTVTLPRGVPLGEAERFLQQNAAWLFKQLDKP | -2.63 |
| HMTESIHVGSKVTINNNAKRWATGQNIYSGVKGKTYTVIQMNGSRLLLDKVISWINKGDVHLPGS | -1.94 |
| HMTESIKRDEAIRLNNGRIYTLDAAKIGTNEYEVMLFNPRTGEEIDSAKTSTEADAILQFDRLRRMYHR | 0.0129 |
| HMTETELYDEVNRLIGLHLSERDRMILIMRDRDEFEIDAIAARTGLSEGNIRLILSRARRTVREAYRNNI | -4.11 |
| HMTETNSVTINERLTLYRRSRSGRWQARVKLNTGEWHRFSTGTADFEKAKESAHRELHNVGFRAENNLPQ | -1.16 |

| Sequence | soluble fraction (log2) |
| --- | --- |
| HMTFDWAAYEISEKEIRVMSLVAEGFSNKEIAQELFLSEGTVRNYISNILEKLGLRDRTQLAVHYLKAV | -3.83 |
| HMTFENMFIENSGETLDREFLVENLRGISWQSYDRSVDVLVSRLRGKLGETPNNTRFIKTIHGVGYKFIGE | 0.353 |
| HMTFGENLIRLRRQQGLSQEQLGMRIGVSRQTVSKWELNDTTPEMEKLIALADLFGLSLDELTGRV | -0.974 |
| HMTFNLDVDGDDQVTALGDGLMIIRKLFGATFAGDALTNKAISPDATRTTDEIHAYIEKGITSGVLD | -0.403 |
| HMTFPAILRELLEKHPQTGKRTTLKELGEAVGTRQQSISLYRNGDTQPSPDILVRIAAFFGVSVDYLL | -0.499 |
| HMTFPYTSLKDAPKNMKEIDGVPLTLDQVNQIAKVADSIGVSKEKNGYAIAKSQFKKSHHIENNRWVKNK | -0.179 |
| HMTFVHTQIEATKEWIISHPLDKHPAVAVVDSAGSIVIGEVDYISKSIVRLRFTAEFSGKAYL | -2.06 |
| HMTGAEGKLARYLLTVPSGEPLRLSATDLAKRLGISRASLYRAFQALEDARLIRREGKSMYVLDPAGLEGV | -0.723 |
| HMTGENWAERSRQLAAAGLLVLGKEAQEKIASLPNLIPLIEAAAASDTRLLNAQTIDELLSFVPTEETI | -0.104 |
| HMTGESVPAPLSGTIFKILVAPGEQVEEGQTVIILEAMKMETEISAPRSGVVGAINIKEGDSVQVGQSLFT | 0.232 |
| HMTGIKISVDRLQIGNYVKLPLNWKDHPFLFSSFAIKSQEEIDLIRRLGLKQVIMFPDKSSMPPKPV | -1.55 |
| HMTGLSNFEFNQIKLDLMHELTQTPLRLTDLVNRITSFENEKTITVIRFLVDEGILLLKDDTLSVAKID | -3.06 |
| HMTGMEAAEFGKRIMKLRKQKGMTQSKLAEQINVSNKAISRWETGEGFPEITLLKPLAKALGTTVDELFGE | -0.334 |
| HMTGMEKFLTIPSIRESTAAFEREYLIHYLDENAWQVSKTAAAIGIERTTLYKKMKQLGIVPIEE | -3.22 |
| HMTGNWRQMHKVKSKETIYGIAKEYGITVDELTKANPGMEAPGYTLKKGDYIFIPYATADANV | -0.432 |
| HMTGQEGLIGAHGVALTRLSNEEGEVKVQGEIWQARSDQEVAKGASIEVVHVDGLVLTVRPQH | -0.0319 |
| HMTGQLTEEELKQRQERAMSNPEIQGILSDPVMRQVLQDMSTDPKAAAEHQRNPTIMAKIQKLINAGIVQV | 0.00889 |
| HMTGSETLQDIFAHLEAGTVRTALSLIPRLDAVEYEQNRQRIAELAGVRPSALDDLRKQAKREEN | ≥ 1.04 |
| HMTGTKEQQVVMLNNILQKQLQAFELQGKRDYPMVTMKNMYNTLSKMVENAGLQTVESYFVDPIKGQQM | -0.694 |
| HMTGVEAIERYLASGVIPGVGPVLAKRLVERFGARTLEVIEDSPRRLTQVPGIGRQKARQIHQALKAQRE | -0.406 |
| HMTGYVMIRVDGLSLEKFLNMAAEAGVRVSDVRRASYTVLYAVVSPRDLKKLQSVAPEKYTVTVR | -1.18 |
| HMTHANAALTPRHRLKVARLVVDEGWPVSEVAARFQVSWPTVKRWADRYRAGQSMQDRSSRP | -1.96 |
| HMTHEAEDLNALRMMVRDPIFSSDEPDLQQLRGAVAHAPQFVDRFKELYNDYQRLAEFVQNSL | -0.993 |
| HMTHFRTDERRREILSTIEADGRVSVSEIASRFDVSPVTIRSDLNYLAIQGKLKRVRGGAVLLDH | -1.17 |

— the domain aggregation screens of Martell et al. (2025)
